# Patent US20090010876A1, “VISFATIN AND USES THEREOF” (THE TRUSTEES OF COLUMBIA UNIVERSITY IN THE CITY OF NEW YORK, priority 2007, published 2009)
# Experiments:
# macrophages = experiment: ER stress-mediated macrophage apoptosis, Alexa-488 annexin V staining; format: cell-based; conditions: pre-incubated with visfatin 24 h (FIG. 1A prints 1100 ng/ml, FIG. 1D ±100 ng/ml), then acetyl-LDL + 58035 (FC) 20 h or tunicamycin + fucoidan 24 h
# Experimental: FIG. 1. […] FIG. 1A. Macrophages were pre-incubated 1100 ng/ml visfatin (vis) for 24 h and then incubated with 50 μg/ml acetyl-LDL+10 μg/ml 58035 (FC) for 20 h. Apoptosis was assayed by Alexa-488 annexin V staining (green). One representative image per condition was shown. FIG. 1B. The percentage of apoptosis was quantified (mean±SEM, n=8). FIG. 1C. Macrophages incubated in medium (con) or with visfatin (vis) for 24 h. Whole cell lysates were immunoblotted for the insulin receptor β (IRβ), SR-A, CD36 and β-actin. FIG. 1D. Macrophages were pre-incubated ±100 ng/ml visfatin (vis) for 24 h and then incubated with 5 μg/ml tunicamycin +25 μg/ml fucoidan (TN/F) for 24 h. Apoptosis was assayed and quantified as described in FIG. 1A and FIG. 1B.
# [1] = system: unfolded protein response (UPR); experiment: Immunoblot of UPR markers in ER-stressed macrophages; format: cell-based; conditions: for distal UPR effectors / distal UPR activation (CHOP, ATF3, XBP-1, ATF4): visfatin 24 h pre-incubation, then FC, 5 μM thapsigargin or 5 μg/ml tunicamycin 5 h, immunoblot
# Experimental: FIG. 2. […] FIG. 2A. Macrophages were preincubated 1100 ng/ml visfatin (vis) for 24 h and then incubated with FC, 5 μM thapsigargin (TG), or 5 μg/ml tunicamycin (TN) for 5 h. Whole cell lysates were immunoblotted for CHOP, ATF3, and β-actin. FIG. 2B. Macrophages were pre-incubated ±100 ng/ml visfatin for 24 h and then incubated with 5 μg/ml TN for 5 h. The nuclear extracts were immunoblotted for XBP-1, ATF4, and nucleophosmin (loading control). FIG. 2C. Nuclei-free cell extracts from the above experiment were immunoblotted with antibodies against PERK, IRE1α, phospho-eIf2α, and β-actin.
# ATF4 [2] = experiment: ATF4 mRNA by RT-QPCR in FC-loaded macrophages; format: cell-based; conditions: visfatin 24 h pre-incubation, then acetyl-LDL + 58035 (FC); normalized with 36B4
# Experimental: (§1) FIG. 3. […] FIG. 3A. Macrophages were preincubated ±1100 ng/ml visfatin (v) for 24 h and then incubated with 50 μg/ml acetyl-LDL+10 μg/ml 58035 (FC) for indicated times. Total RNA was extracted and subjected to RT-QPCR. The mRNA level of ATF4 was normalized with a control gene 36B4. FIG. 3B. Macrophages were pre-incubated for 24 h±100 ng/ml visfatin (vis) and then incubated for 5 h+5 μg/ml tunicamycin (TN). The cells were pulsed with [35S]methionine/cysteine in methionine-free medium for 15 min and then lysed in RIPA buffer. ATF4 was immunoprecipitated using a rabbit antibody immobilized to protein A/G beads. A normal rabbit IgG served as control. The immunoprecipitate was subjected to SDS-PAGE and autoradiography.
# ATF4 [3] = experiment: ATF4 protein synthesis, [35S]methionine/cysteine pulse and immunoprecipitation; format: cell-based; conditions: ±100 ng/ml visfatin 24 h, then 5 μg/ml tunicamycin 5 h, 15 min pulse
# Experimental: as §1
# insulin receptor = experiment: CHOP immunoblot in macrophages from insulin receptor deficient and wild type mice; format: cell-based; conditions: IR−/− vs wt macrophages, ±100 ng/ml visfatin 24 h, then 5 μg/ml tunicamycin 5 h
# Source text: FIG. 4. […] Whole cell lysates were immunoblotted for CHOP and β-actin.
# [4] = system: macrophages in mouse peritoneal cavity; experiment: Acute UPR induction in mouse peritoneal macrophages in vivo, CHOP immunoblot; parameters: species or system Male C57/B6 mice; conditions: i.v. 5 mg recombinant visfatin, 24 h later i.p. 25 μg tunicamycin, harvest 12 h after, CHOP normalized against phospho-eIf2α
# Experimental: FIG. 5. […] FIG. 5A. Male C57/B6 mice were subjected to intra-peritoneal (i.p.) injection of 1 ml of 4% thioglycolate to elicit peritoneal macrophages. Three days later, the mice were injected i.v. with 0.1 ml sterile saline ±5 mg recombinant visfatin (vis). Twenty-four hours later, these mice were injected i.p. with 0.5 ml 150 mM dextrose ±25 μg tunicamycin (TN). Twelve hours after TN injection, macrophages were harvested by peritoneal lavage and immediately lysed in RIPA buffer. The lysates were subjected to SDS-PAGE and immunoblotting for CHOP, phospho-eIf2α and β-actin. FIG. 5B. The intensity of CHOP bands were quantified and normalized against that of phospho-eIf2α.
# [5] = system: atherosclerotic plaque formation; experiment: Atherosclerotic plaque formation in susceptible mice on high cholesterol diet; format: in vivo; conditions: vs diluent alone, mice with reduced ApoE1 expression
# Source text: Recombinant visfatin polypeptides will be injected into mice susceptible to atherosclerotic plaque formation. In accordance with this prophetic example, the genome of these mice can comprise a transgenic modification wherein ApoE1 gene expression is reduced to levels that promote atherosclerosis. The mice will be continuously fed a high cholesterol diet to promote the formation of atherosclerotic lesions. One group of mice will be administered a pharmaceutically effective amount of visfatin polypeptide in a suitable diluent and another group of mice will be administered diluent alone and the incidence of atherosclerotic plaque formation will be compared between the two groups. The amount of visfatin polypeptide, the length of administration and the frequency of administration are variables that can readily be determine by an individual skilled in the art.
# [6] = system: macrophages in atherosclerotic plaques; experiment: Macrophage death in atherosclerotic plaques of susceptible mice; format: in vivo; conditions: vs diluent alone; mice with reduced ApoE1 expression, high cholesterol diet
# Source text: Recombinant visfatin polypeptides will be injected into mice susceptible to atherosclerotic plaque formation. In accordance with this prophetic example, the genome of these mice can comprise a transgenic modification wherein ApoE1 gene expression is reduced to levels that promote atherosclerosis. The mice will be continuously fed a high cholesterol diet to promote the formation of atherosclerotic lesions. One group of mice will be administered a pharmaceutically effective amount of visfatin polypeptide in a suitable diluent and another group of mice will be administered diluent alone and the amount of macrophage death in atherosclerotic plaques will be compared between the two groups. The amount of visfatin polypeptide, the length of administration and the frequency of administration are variables that can readily be determine by an individual skilled in the art.
# [7] = system: ER stress related disease; experiment: ER-stress related disease in susceptible mice; format: in vivo; conditions: vs diluent alone; mice susceptible to an ER-stress related disease
molecule,measurement,setting,value
"visfatin: adipokine protein, having a molecular weight of about 52,000 daltons; polypeptide having SEQ ID NO:1 (protein, listed as Homo sapiens) MNPAAEAEFNILLATDSYKVTHYKQYPPNTSKVYSYFECREKKTENSKLRKVKYEETVFYGLQYILNKYLKGKVVTKEKIQEAKDVYKEHFQDDVFNEKGWNYILEKYDGHLPIEIKAVPEGFVIPRGNVLFTVENTDPECYWLTNWIETILVQSWYPITVATNSREQKKILAKYLLETSGNLDGLEYKLHDFGYRGVSSQETAGIGASAHLVNFKGTDTVAGLALIKKYYGTKDPVPGYSVPAAEHSTITAWGKDHEKDAFEHIVTQFSSVPVSVVSDSYDIYNACEKIWGEDLRHLIVSRSTQAPLIIRPDSGNPLDTVLKVLEILGKKFPVTENSKGYKLLPPYLRVIQGDGVDINTLQEVCVLY",ER-stress mediated apoptosis of macrophages,macrophages,protects macrophages from ER-stress mediated apoptosis
same,ER-stress mediated apoptosis of macrophages,macrophages; listed as Visfatin,protects macrophages from ER stress-mediated apoptosis
same,"distal UPR effectors / distal UPR activation (CHOP, ATF3, XBP-1, ATF4)",[1],directly targets distal UPR effectors
same,"distal UPR effectors / distal UPR activation (CHOP, ATF3, XBP-1, ATF4)",[1]; listed as Visfatin,suppresses the distal UPR activation
same,"upstream UPR activators (PERK, IRE1α, phospho-eIf2α)","[1]; ±100 ng/ml visfatin 24 h, then 5 μg/ml tunicamycin 5 h, nuclei-free cell extracts",without inhibiting upstream UPR activators
same,mRNA level of ATF4,ATF4 [2],intact
same,translation of ATF4 / ATF4 protein synthesis,ATF4 [3],halted
same,translation of ATF4 / ATF4 protein synthesis,ATF4 [3]; listed as Visfatin,suppresses ATF4 protein synthesis
same,"UPR-suppressing effect, dependence on the insulin receptor",insulin receptor,independent of the insulin receptor
same,acute UPR induction in macrophages of the mouse peritoneal cavity,[4]; listed as Recombinant visfatin,suppresses the acute UPR induction of macrophages in mouse peritoneal cavity
same,acute UPR induction in macrophages of the mouse peritoneal cavity,[4]; listed as recombinant visfatin,suppress acute UPR induction in macrophages of the mouse peritoneal cavity
same,incidence of atherosclerotic plaque formation,[5],lower incidence of atherosclerotic plaque formation
same,amount of macrophage death in atherosclerotic plaques,[6],lower amount of cell death
same,incidence of the ER stress related disease,[7],lower incidence of the ER stress related disease
